Results published in the supplement of paper PMC9112550, “Optimization of the antimicrobial peptide Bac7 by deep mutational scanning” (BMC Biology, 2022).
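Note: peptides expressed intracellularly from a pBAD plasmid library in pooled LB shake-flask culture, induced with 0.3% L-arabinose, DNA abundance read by NGS, three biological replicates, DESeq2 with apeglm shrinkage.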

What follows are sequences tested on Escherichia coli TOP10 (assay: shrunken log2 fold change of peptide-encoding DNA abundance (4.5 h post-induction vs induction); higher = less antimicrobial activity (less host growth inhibition)). Details: time post-induction: 4.5 h; library: site-saturation at positions 5, 18, 19, 20.
With RRIRFRPPRLPRPRPRPCTLPRP the “shrunken log2 fold change” value was -0.471.
In the case of RRIRGRPPRLPRPRPRPICMPRP, the “shrunken log2 fold change” value is reported as 0.454.
RRIRWRPPRLPRPRPRPGTSPRP was tested, and the “shrunken log2 fold change” value was 0.304.
With RRIRRRPPRLPRPRPRPKLTPRP the “shrunken log2 fold change” value was 0.0538.
With RRIRWRPPRLPRPRPRPCKQPRP the “shrunken log2 fold change” value was -0.156.
With RRIRPRPPRLPRPRPRPRWSPRP the “shrunken log2 fold change” value was 0.108.
With RRIRPRPPRLPRPRPRPMHDPRP the “shrunken log2 fold change” value was -0.0561.
For RRIRYRPPRLPRPRPRPYKHPRP, the “shrunken log2 fold change” value was -1.18.
In the case of RRIRHRPPRLPRPRPRPPTKPRP, the “shrunken log2 fold change” value is reported as 0.161.
With RRIRHRPPRLPRPRPRPFDKPRP the “shrunken log2 fold change” value was -0.118.
For RRIRIRPPRLPRPRPRPPDYPRP, the “shrunken log2 fold change” value was -0.0646.
With RRIRNRPPRLPRPRPRPDVAPRP the “shrunken log2 fold change” value was 0.285.
With RRIRTRPPRLPRPRPRPSPQPRP the “shrunken log2 fold change” value was -0.133.
RRIRIRPPRLPRPRPRPAQCPRP was tested, and the “shrunken log2 fold change” value was 0.211.
With RRIRCRPPRLPRPRPRPPEGPRP the “shrunken log2 fold change” value was 0.926.
For RRIRFRPPRLPRPRPRPREGPRP, the “shrunken log2 fold change” value was 0.285.
With RRIRYRPPRLPRPRPRPFDLPRP the “shrunken log2 fold change” value was -0.967.
With RRIRHRPPRLPRPRPRPDPIPRP the “shrunken log2 fold change” value was 0.0172.
For RRIRWRPPRLPRPRPRPKYLPRP, the “shrunken log2 fold change” value was -0.1.
With RRIRGRPPRLPRPRPRPHSNPRP the “shrunken log2 fold change” value was 0.117.
With RRIRNRPPRLPRPRPRPHIWPRP the “shrunken log2 fold change” value was -0.0306.
For RRIRMRPPRLPRPRPRPMDGPRP, the “shrunken log2 fold change” value was 0.418.
With RRIRYRPPRLPRPRPRPAHKPRP the “shrunken log2 fold change” value was 0.00824.
For RRIRFRPPRLPRPRPRPCGLPRP, the “shrunken log2 fold change” value was -0.00916.
For RRIRWRPPRLPRPRPRPFKYPRP, the “shrunken log2 fold change” value was -0.00867.
In the case of RRIRFRPPRLPRPRPRPHNRPRP, the “shrunken log2 fold change” value is reported as 0.0584.
In the case of RRIRTRPPRLPRPRPRPNRVPRP, the “shrunken log2 fold change” value is reported as -0.0472.
RRIRRRPPRLPRPRPRPLDAPRP was tested, and the “shrunken log2 fold change” value was 0.472.
With RRIRLRPPRLPRPRPRPVNHPRP the “shrunken log2 fold change” value was 0.197.
With RRIRCRPPRLPRPRPRPMDPPRP the “shrunken log2 fold change” value was -0.543.
RRIRYRPPRLPRPRPRPSDLPRP was tested, and the “shrunken log2 fold change” value was -1.92.
With RRIRIRPPRLPRPRPRPQTLPRP the “shrunken log2 fold change” value was -0.129.
RRIRGRPPRLPRPRPRPGKLPRP was tested, and the “shrunken log2 fold change” value was 0.461.
With RRIRYRPPRLPRPRPRPHENPRP the “shrunken log2 fold change” value was -0.212.
With RRIRPRPPRLPRPRPRPAGIPRP the “shrunken log2 fold change” value was -0.0533.
RRIRNRPPRLPRPRPRPCHPPRP was tested, and the “shrunken log2 fold change” value was -0.0698.
For RRIRGRPPRLPRPRPRPLDYPRP, the “shrunken log2 fold change” value was 0.0074.
RRIRVRPPRLPRPRPRPQSVPRP was tested, and the “shrunken log2 fold change” value was -0.0666.
RRIRHRPPRLPRPRPRPQDAPRP was tested, and the “shrunken log2 fold change” value was -0.00992.
In the case of RRIRWRPPRLPRPRPRPAYNPRP, the “shrunken log2 fold change” value is reported as -0.389.
In the case of RRIRERPPRLPRPRPRPKMHPRP, the “shrunken log2 fold change” value is reported as -0.134.
RRIRSRPPRLPRPRPRPGEHPRP was tested, and the “shrunken log2 fold change” value was 0.0053.
For RRIRLRPPRLPRPRPRPRHLPRP, the “shrunken log2 fold change” value was -0.818.
RRIRARPPRLPRPRPRPLHRPRP was tested, and the “shrunken log2 fold change” value was 0.281.
RRIRRRPPRLPRPRPRPEDMPRP was tested, and the “shrunken log2 fold change” value was 0.296.
For RRIRYRPPRLPRPRPRPSHIPRP, the “shrunken log2 fold change” value was -1.45.
For RRIRFRPPRLPRPRPRPEDIPRP, the “shrunken log2 fold change” value was 0.0107.
For RRIRDRPPRLPRPRPRPHKMPRP, the “shrunken log2 fold change” value was -0.293.
With RRIRPRPPRLPRPRPRPYTGPRP the “shrunken log2 fold change” value was -0.6.
RRIRHRPPRLPRPRPRPETNPRP was tested, and the “shrunken log2 fold change” value was 0.0688.
For RRIRWRPPRLPRPRPRPYSEPRP, the “shrunken log2 fold change” value was -0.0145.
With RRIRIRPPRLPRPRPRPCRRPRP the “shrunken log2 fold change” value was -0.23.
In the case of RRIRDRPPRLPRPRPRPTWPPRP, the “shrunken log2 fold change” value is reported as 0.501.
RRIRFRPPRLPRPRPRPCGAPRP was tested, and the “shrunken log2 fold change” value was 0.0828.
For RRIRKRPPRLPRPRPRPVQCPRP, the “shrunken log2 fold change” value was 0.0223.
In the case of RRIRTRPPRLPRPRPRPHLQPRP, the “shrunken log2 fold change” value is reported as -0.321.
RRIRLRPPRLPRPRPRPLGTPRP was tested, and the “shrunken log2 fold change” value was 0.18.
In the case of RRIRERPPRLPRPRPRPQNFPRP, the “shrunken log2 fold change” value is reported as -0.486.
In the case of RRIRKRPPRLPRPRPRPNFKPRP, the “shrunken log2 fold change” value is reported as 0.166.
For RRIRIRPPRLPRPRPRPSWAPRP, the “shrunken log2 fold change” value was -0.0867.
For RRIRNRPPRLPRPRPRPDFRPRP, the “shrunken log2 fold change” value was -0.0186.
For RRIRCRPPRLPRPRPRPWKFPRP, the “shrunken log2 fold change” value was -0.318.
With RRIRCRPPRLPRPRPRPMREPRP the “shrunken log2 fold change” value was 0.907.
RRIRHRPPRLPRPRPRPLCMPRP was tested, and the “shrunken log2 fold change” value was -0.708.
RRIRIRPPRLPRPRPRPEIFPRP was tested, and the “shrunken log2 fold change” value was -0.0951.
With RRIRMRPPRLPRPRPRPQPRPRP the “shrunken log2 fold change” value was 1.22.
In the case of RRIRSRPPRLPRPRPRPKNAPRP, the “shrunken log2 fold change” value is reported as 0.196.
For RRIRPRPPRLPRPRPRPVDKPRP, the “shrunken log2 fold change” value was -0.153.
With RRIRVRPPRLPRPRPRPLFGPRP the “shrunken log2 fold change” value was -0.104.
With RRIRIRPPRLPRPRPRPFSIPRP the “shrunken log2 fold change” value was -0.643.
With RRIRLRPPRLPRPRPRPQYPPRP the “shrunken log2 fold change” value was -0.765.
For RRIRARPPRLPRPRPRPVMEPRP, the “shrunken log2 fold change” value was 1.04.
In the case of RRIRKRPPRLPRPRPRPPTPPRP, the “shrunken log2 fold change” value is reported as 0.796.
RRIRFRPPRLPRPRPRPGTNPRP was tested, and the “shrunken log2 fold change” value was -0.254.
For RRIRLRPPRLPRPRPRPREKPRP, the “shrunken log2 fold change” value was 0.15.
